Results taken from paper PMC9094657, “A bioactive phlebovirus-like envelope protein in a hookworm endogenous virus” (Science Advances, 2022).

Assays:
[1] = target: Atlas GC ectodomain GPL binding pocket mutant R86A (Ancylostoma ceylanicum)
[2] = target: Atlas GC ectodomain fusion loop mutant F136A/F137A (Ancylostoma ceylanicum)
[3] = target: the molecule itself; test: SEC-MALS; Superdex 200 (10/300), 293 K, 20 mM tris pH 7.8, 0.15 M NaCl, 5% glycerol, 0.5 mM TCEP; 100 ul at 1.6 to 2.5 mg/ml; self-association (trimer)

Atlas GC ectodomain GPL binding pocket mutant R86A (domain or fragment)
stoichiometry N [1]: 3

Atlas GC ectodomain fusion loop mutant F136A/F137A (domain or fragment)
stoichiometry N [2]: 3

B1: Atlas GC ectodomain (soluble ectodomain fragment of the phlebovirus GC-like Env of Ancylostoma ceylanicum Atlas virus, polyprotein residues 2330 to 2772) (domain or fragment, UniProt A0A016UZK2 2330-2772, looked up)
chain: CSEVISVTSTEEVCTIQENKETCTFNHATTITLQPLQQQTCLTLNDPEKRPMGMLTVKPDGIKFRCNKKIEFFTRDHQIVSESVHRCHRAGSCHSDECHHVKDTDALPEFSSEANSRPGYTSCSSSCGCITCDGCFFCEPSCLFHRLYAIPTTPTIYSIFYCPSWELEVDAEISLQREDETTTSTIRLLPGRTSTWNNIRFSLIGTIVPQLPILSSAFVTNGRQTSIVKPAYAGQLQSNSVGQLQCPNLEAAKQFECHFSRNLCTCTNALHKVSCTCYDGSVEDHMEALPLPQTSKNFLVFEKDRNIYAKTHVGSALQLHIVAQDLKITTVKHTSHCQVEASDLSGCYSCTSGASLTLSCKSDNGEVLANMKCNEQTHVIRCTESGFINNILLMFDTSEVAADCTAACPGGIVNFTIKGLLAFVNERIISQSYSATDVERNIK
notes: The C-terminal V5 and histidine tags were optionally cleaved with carboxypeptidase A; The atomic model covers residues 2330 to 2769; also called GC trimer; WT
stoichiometry N [3]: 3
